The source of these data is patent publication US20140287419A1, “Compositions Having Dicamba Decarboxylase Activity and Methods of Use” (priority 2013, published 2014).

The data set is described as follows: 14C assay with IPTG-induced recombinant E. coli cells (14CO2 capture from [14C]-carboxyl-labeled dicamba). As to conditions: for Dicamba Decarboxylase Activity: IPTG-induced recombinant E. coli cells, [14C]-carboxyl-labeled dicamba, 14CO2 capture; for Enzymatic Detection level: dicamba decarboxylation activity of the protein of the given SEQ ID NO.

B1: 45 (protein)
chain: MANDDLAEVIAAHPDRFAGFAALPMRDPQAAAVELQRAVGTHGFCGAMINGLIEGRFLDDPAFAPLLSTAADLGVPLYLHPSFPPPQVAEIYFGGLAPVLGDLLATAGWGWHAETALHVLRLVATGVFDRLPELWVIVGHMGEMIPFALARIDTVLSPVAQLRQPVAQYFQTNVWFTTSGYTTFPPLQCALSTVGIDRLIFSVDYPYTDNTSARALLDTAPISPVDREKLAHGTVEALLRV
modifications: Mycobacterium sp
Turning to B1, the “Dicamba Decarboxylase Activity” value was “No” and the “Enzymatic Detection level” value is listed as “No”.

B2: 44 (protein, listed as Mycobacterium avium)
chain: MARIITVEEHFQHPEVSARVAELTGPAVEGLAEFGNAFSLDPDSTARLGGNRLAHMDQVGIDVQVVSHGNGSPGTLQHPEAVELCRRVNNDLAAQIAENPDRFRGFATLPLYDPAAAAEELRRCVGDLGFVGALIAGSYDGLFLDDERFDPILTAAEAVDFPIYVHPGLPEAPVSQRYYAGSWPASVHMMFSGPAFGWHAEAGIHIVRLILSGALDRHPTLKLLSGHWGELAAFYLERLDETLGLLPTGLERAPSDYYRQQVWITPSGMYNQNQLNFMTAELGAQRIIYSEDFPYVVRDNVSTFLEQAGLSEADTHAIAHTNAEALLRI
Turning to B2, the “Dicamba Decarboxylase Activity” value is given as “High” and the “Enzymatic Detection level” value was “High”.

B3: 40 (protein, listed as Rhodococcus jostii)
chain: MAQGKIALEEHFAIPETLNDSAGFVPGTYWDELQARLLDIQDVRLKLMDEHNIETMILSLNAPAVQAIPERERAIDIARRANDVLAEECAKRPDRFRGFAALPLQDPDAAAEELRRCVTELGFVGALVNGFSQSATVDGGSTPLYYDLPRYRPFWAEVERLDVPFYLHPRNPLNQDARIYEGHPWLLGPTWAFAQETAVHALRLMASGLFDEHPGLRIVLGHMGEGIPAMLWRIDHRNAWVDVPPAYPAKRRMVDYFTENFFVTTSGNFRTQTLIDLLLELGSERVMFSTDWPFENINHAAEWFDAASISEADRLKIGRTNAATLFKLDR
In the case of B3, the “Dicamba Decarboxylase Activity” value is given as “Low” and the “Enzymatic Detection level” value was “Low”.

B4: 3 (protein, listed as Lactobacillus plantarum)
chain: MAKLITVEEHFESAAVTAAMRQAVGNAVLPAVSPALRQYMRDNLPSPAIMQDTQHERLAFMAQYGIDMQVLSYGNSSPQNLSPEQAVPLSQLANDELAKAVVAHPDRYAGLAVLPVGDPQAAVAELNRAVTTLGLRGVLLKGNYQNKFFDEPFFLPIFEAAAALDVPVYFHPSFIPQAVTSHYFESNQWSDVVTGILSSAGYGWHMDVGIQVIRMIASGIFDKLPGLKLISGHWGELVPLFLERLDDELTTYTDLQYPFSTYYRHNVYVTPSGILSAPQLQFMLAEMGADHLMYSIDYPYKQPETSGSFLDIADLTDEQRAQIAFGTATTLFKL
For B4, the “Dicamba Decarboxylase Activity” value is given as “Low” and the “Enzymatic Detection level” value is listed as “Low”.

B5: 37 (protein, listed as Burkholderia gladioli)
chain: MATFSNVKKIALEEHFAIAETIEDSAGFVPPDDWVELRGRLLDIQERRLAEMDRAGIELMVLSLNAPAVQAIRDPRQAVELARRANDYLAEQVARRPDRFRAFAALPMQAPEQAIREAERCVRELGFVGALVNGFSEAEDGAELYYDLPRYRPFWAALEALEVPFYLHPRNPLAGRAPIYDGHSWLMGPTWAFGQETAVHALRLMGSGLFDAHPRLQIILGHMGEGLPYSMWRVDNRNAWVSAKPNYPAEKPIAEYFRNNFWLTTSGNFRTQTLIDAMLEIGSDRILFSADWPFENMDHAADWFDHASISENDRIKIGRGNAERLLKLGR
For the molecule B5, the “Dicamba Decarboxylase Activity” value was “Low” and the “Enzymatic Detection level” value is given as “Low”.

B6: 42 (protein)
chain: MAQGKIALEEHFAIPDTLQDSAGFVPGDYWKELSARLLDIHEQRLMQMDAYGIEKMILSLNAPAVQAIPDKAKALEISRRANDFLAEQCARNPDRFLGFAALPLQDPDAATAELQRCVKTLGFVGALVNGFSQEGDGVTPLYYDLPQYRGFWAEVEKLAVPFYLHPRNPLPQDSRIYAGHPWLMGPTWAFAQETAVHALRLVGSGLFDDHPALRIILGHMGEGLPYMMWRIDNRNAWVKVAPNYPAKRRIADYFNENFYITTSGNFRTQSLVDAMLEIGADRILFSTDWPFENIDHASDWFDTATISEADRLKIGRTNAATLFNLES
modifications: Agrobacterium radiobacter
As to B6, the “Dicamba Decarboxylase Activity” value is on record as “Low” and the “Enzymatic Detection level” value was “Low”.

B7: 36 (protein, listed as Agrobacterium sp.)
chain: MAQGKVALEEHFAIPETLQDSAGFVPGDYWTELQHRLLDIQDTRLKLMDAHGIETMILSLNAPAVQAIPDKTKAIEIARRANDALAEECAKRPNRFLAFAALPLQDPDAATQELQRCVNDLGFVGALVNGFSQEGDGQIPLYYDLPQYRPFWGEVEKLDVPFYLHPRNPLPQDSRIYDGHPWLLGPTWAFAQETAVHALRLMASGLFDEHPRLNIILGHMGEGLPYMMWRIDHRNAWVKLPPRYPAKRRFVDYFNENFHITTSGNFRTQTLIDAILEIGADRILFSTDWPFENIDHASDWFHATSIAEADRVKIGRTNARRLFKLDGR
As for B7, the “Dicamba Decarboxylase Activity” value is listed as “High” and the “Enzymatic Detection level” value is listed as “High”.

B8: 39 (protein, listed as Agrobacterium fabrum)
chain: MAQGKVALEEHFAIPETLQDSAGFVPGDCWTELQHRLLDIQDTRLKLMDAHGIETMILSLNAPAVQAIPDKTKAIEIARRANDALAEECAKRPDRFLAFAALPLQDPDAATQELRRCVNDLGFVGALVNGFSQEGDGQTPLYYDLPQYRPFWGEVEKLDVPFYLHPRNPLPQDSRIYDGHPWLLGPTWAFAQETAVHALRLMASGLFDEHPRLDIILGHMGEGLPYMMWRIDHRNAWVKLPPRYPAKRRFVDYFNENFHITTSGNFRTQTLIDAILEIGADRILFSTDWPFENIDHASDWFHATSIAEADRVKIGRTNARRLFKLDGR
For B8, the “Dicamba Decarboxylase Activity” value is on record as “No” and the “Enzymatic Detection level” value was “No”.

B9: 43 (protein, listed as Rhizobium leguminosarum)
chain: MAQGKIALEEHFAIPETLQDSAGFVPGDYWTELSARLLDIQDKRLRLMDTHGIEKMILSLNAPAVQAIPDKAKAVEISRRANDFLAEQCVKNPNRFLGFAALPLQDPDAATQELQRCVTTMGFVGALVNGFSQEGDGTTPLYYDLPQYRPFWAEVEKLDVPFYLHPRNPLPQDSRIYAGHSWLMGPTWAFAQETAVHALRLMGSGLFDEHPALRIIVGHMGEGLPYMMWRIDNRNAWVKVEKSYPAKRPIADYFNENFYITTSGNFRTQSLIDAMLEIGADRILFSADWPFENVDHAANWFDSATISEADRLKIGRTNAVSLFKLDR
Take B9: the “Dicamba Decarboxylase Activity” value was “High” and the “Enzymatic Detection level” value is given as “High”.

B10: 38 (protein, listed as Variovorax paradoxus)
chain: MAQGKIGLEEHFAIPQTLQDSAGFVPGVYWKELSSRLLDIHDGRLRQMDEHGMEMMILSLNAPAVQAVADPVKAYELAVRANDFLAEQVAKRPDRFQAFAALPMQDPEKATQELERCMSVLGFRGALVNGFSQVGTPDNVAYYDAPQYAPFWAAAERLDAPFYLHPRNPIASWAQIYEGHPWLLGPTWAFAQETAVHALRLMASGLFDRHPGLKIILGHLGEGLPYNMWRVDHRNAWVKAPKGYPAKRKLCEYFQENFYLTTSGNFRTQTLIDAMLEVGSDRILFSTDWPFENIDHASNWFNDTSISEADRKKIGRTNAMSLFKLA
On to B10, for which the “Dicamba Decarboxylase Activity” value was “Low” and the “Enzymatic Detection level” value is recorded as “Low”.
